From publication PMC8567202, “Phosphoinositide-binding activity of Smad2 is essential for its function in TGF-β signaling” (The Journal of Biological Chemistry, 2021)
Numbering of substitutions follows the chain as printed. In names and notes the source's numbering stands.

B1: Smad2-W422A: W422A mutant of full-length Smad2; specific PI(4,5)P2 binding-compromised (protein)
chain: MSSILPFTPPVVKRLLGWKKSAGGSGGAGGGEQNGQEEKWCEKAVKSLVKKLKKTGRLDELEKAITTQNCNTKCVTIPSTCSEIWGLSTANTVDQWDTTGLYSFSEQTRSLDGRLQVSHRKGLPHVIYCRLWRWPDLHSHHELKAIENCEYAFNLKKDEVCVNPYHYQRVETPVLPPVLVPRHTEILTELPPLDDYTHSIPENTNFPAGIEPQSNYIPETPPPGYISEDGETSDQQLNQSMDTGSPAELSPTTLSPVNHSLDLQPVTYSEPAFWCSIAYYELNQRVGETFHASQPSLTVDGFTDPSNSERFCLGLLSNVNRNATVEMTRRHIGRGVRLYYIGGEVFAECLSDSAIFVQSPNCNQRYGWHPATVCKIPPGCNLKIFNNQEFAALLAQSVNQGFEAVYQLTRMCTIRMSFVKGAGAEYRRQTVTSTPCWIELHLNGPLQWLDKVLTQMGSPSVRCSSMS
modifications: left off: His6, N-terminal, state not stated
B2: Smad2-Y426A: Y426A mutant of full-length Smad2; specific PI(4,5)P2 binding-compromised (protein)
chain: B1 chain with A422W, Y426A
modifications: left off: His6, N-terminal, state not stated
B3: Smad2-K420A: K420A mutant of full-length Smad2; predominantly TβRI binding-compromised (protein)
chain: B1 chain with K420A, A422W
modifications: left off: His6, N-terminal, state not stated
B4: Smad2 WT: bacterially expressed full-length Smad2 wild-type (protein)
chain: B1 chain with A422W
modifications: left off: His6, N-terminal, state not stated
notes: bacterially expressed full-length Smad2 wild-type
B5: Smad2- R427A/R428A: double mutant of full-length Smad2; PI(4,5)P2 and TβRI binding-compromised (protein)
chain: B1 chain with A422W, R427A, R428A
modifications: left off: His6, N-terminal, state not stated
B6: EGFP-Smad2 WT: mouse EGFP-Smad2 wild type transfected into HeLa cells (protein, UniProt Q62432 2-467, looked up)
Mothers against …: SSILPFTPPVVKRLLGWKKSAGGSGGAGGGEQNGQEEKWCEKAVKSLVKKLKKTGRLDELEKAITTQNCNTKCVTIPSTCSEIWGLSTANTVDQWDTTGLYSFSEQTRSLDGRLQVSHRKGLPHVIYCRLWRWPDLHSHHELKAIENCEYAFNLKKDEVCVNPYHYQRVETPVLPPVLVPRHTEILTELPPLDDYTHSIPENTNFPAGIEPQSNYIPETPPPGYISEDGETSDQQLNQSMDTGSPAELSPTTLSPVNHSLDLQPVTYSEPAFWCSIAYYELNQRVGETFHASQPSLTVDGFTDPSNSERFCLGLLSNVNRNATVEMTRRHIGRGVRLYYIGGEVFAECLSDSAIFVQSPNCNQRYGWHPATVCKIPPGCNLKIFNNQEFAALLAQSVNQGFEAVYQLTRMCTIRMSFVKGWGAEYRRQTVTSTPCWIELHLNGPLQWLDKVLTQMGSPSVRCSSMS
modifications: EGFP fusion
notes: mouse EGFP-Smad2 wild type transfected into HeLa cells

Tests used:
[1] = SPR membrane binding to POPC/POPS vesicles; settings: for binding to POPC/POPS (80:20): RU/RUmax, 100 nM protein
Text: It has been generally thought that Smad2 and Smad3 are targeted to the activated TGF-β signaling complex by direct interaction with TβRI ([1], [2]) or via SARA ([7]). However, it has been shown that many cytosolic proteins that are targeted to membrane proteins or membrane-anchored signaling complexes have affinity for membrane lipids ([14]), phosphoinositides (PtdInsPs) in particular, and that their membrane recruitment is mediated by coincident lipid–protein and protein–protein interactions ([15], [16]). For most of these proteins, their PtdInsP specificity directs their membrane targeting behaviors: e.g., PI(4,5)P2-specific proteins are recruited to PM where the highest concentration of PI(4,5)P2 is found, whereas PI(3)P-specific proteins are targeted to PI(3)P-rich EEs ([17], [18]). To resolve uncertainty about the functional location of the activated TGF-β signaling complex, we thus explored the possibility that lipid-binding activity of Smad2 may play a role in specific targeting of Smad2 to the active TGF-β receptor complex either at the PM or at EEs. Lipid-binding activity of Smad proteins has not been reported to date. We thus measured the binding of bacterially expressed Smad2 to large unilamellar vesicles (LUVs) containing various lipids by surface plasmon resonance (SPR) analysis ([19], [20]). Lipid selectivity determined by SPR analysis is typically reported as the relative resonance unit (RU) values for different lipids at a given protein concentration ([21], [22]). Although simple and intuitive, this type of analysis can sometimes yield misleading and erroneous results because some proteins show widely different RU values when bound to different lipid surfaces. Thus, a more reliable parameter that represents the fraction of the membrane bound protein molecules at a given protein concentration would be a normalized value of RU/RUmax where RUmax indicates the maximal RU value when a given lipid surface is saturated with the protein molecules. We thus estimated RUmax for different lipid species by employing the highest protein concentration experimentally feasible (e.g., 1 μM) and determined RU/RUmax for different lipids at the protein concentration that allows robust comparison (e.g., 100 nM). Once the lipid selectivity has been determined by this semiquantitative approach, we then rigorously determined and compared Kd values for selected lipids for more accurate quantitative determination of lipid selectivity.
Figure 1 Membrane-binding properties of Smad2 FL protein and MH2 domain determined by SPR analysis.A, PtdInsP selectivity of Smad2-FL determined using POPC/POPS/PtdInsP (77:20:3 in mole ratio) LUVs coated on the L1 sensor chip. The protein concentration was 100 nM. PIP3 indicates PI(3,4,5)P3. B, determination of Kd for binding of Smad2 FL to different LUVs. The protein concentration was varied from 0 to 500 nM. C, PI(4,5)P2 concentration dependence of membrane binding of Smad2-FL determined using POPC/POPS/PI(4,5)P2 (77-x:20:x, x = 0–5 mol%) LUVs. The protein concentration was 100 nM. D, PtdInsP selectivity of the Smad2 MH2 domain determined using POPC/POPS/PtdInsP (77:20:3 in mole ratio) LUVs. The protein concentration was 100 nM. Normalized RU values (RU/RUmax) were used for all figures but (C) for more accurate determination of PtdInsP selectivity. RUmax values determined for different vesicles at 1 μM Smad2 were: 280 ± 20 for POPC/POPS/PI(4,5)P2 (77:20:3), 370 ± 10 for POPC/POPS/PI(3,4)P2 (77:20:3), 400 ± 15 for POPC/POPS/PI(3,4,5)P3 (or PIP3) (77:20:3), 400 ± 20 for POPC/POPS/PI(3)P (77:20:3), and 380 ± 20 for POPC/POPS (80:20). Only the association phases of the sensorgrams are shown and used for further analysis. Each set of sensorgrams shown in A and D are representatives of >5 independent measurements. Data points shown in B and C are the average ±S.D. values from triplicate measurements. […]

[2] = system: HeLa cells; experiment: Confocal imaging of Smad2 localization; format: cell-based
Description: Supplemental Fig. S1. Confocal images of endogenous Smad2 and exogenously expressed EGFP-Smad2 in HeLa cells before (A) and 10 min after (B) TGF-β stimulation.
Endogenous Smad2 images were obtained by immunostaining using the Smad2-specific antibody. 10 ng/ml TGF-β was used for stimulation. Scale bars indicate 10 μm.
Supplemental Fig. S2. Suppression of endogenous Smad2 expression in HeLa cells by siRNA.
Western blot analysis showing that expression of endogenous Smad2 in HeLa cells was successfully suppressed by siRNA. 30 nM siRNA-3 was routinely used for knockdown experiments. For re-introduction of mouse Smad2 to these cells, see Fig. 5A. Glyceraldehyde 3-phosphate dehydrogenase (GAPDH) was used as a gel loading control. […]

Molecule	binding to POPC/POPS (80:20) ([1]; SPR)	further results
B1	much less effects on binding	–
B2	much less effects on binding	–
B3	modestly and similarly reduced binding to both vesicles	–
B4	–	RUmax ([1]; POPC/POPS (80:20), 1 μM Smad2): 380 ± 20; Kd ([1]; SPR, L1 chip, 23 °C, 20 mM Tris, pH 7.4, 0.16 M NaCl, POPC/POPS (80:20), average ±S.D., n = 3, read-out: Kd for lipid binding, PC/PS): 560 ± 150 nM
B5	much less effects on binding	–
B6	–	localization in unstimulated cells [2]: mostly distributed in the cytoplasm with little prelocalization to the PM
